Test results from patent US20210115143A1.

Molecular target: hPD-L1-Fc fusion protein (made in the filing, Example 1) (human) (UniProt Q9NZQ7)
Experiment: SPR, Biacore X100, hPD-L1-Fc on CM5 chip, antibody in solution, 25 C

Chain of hPD-L1-Fc fusion protein (made in the filing, Example 1) (human) (Q9NZQ7 19-238 limits assumed): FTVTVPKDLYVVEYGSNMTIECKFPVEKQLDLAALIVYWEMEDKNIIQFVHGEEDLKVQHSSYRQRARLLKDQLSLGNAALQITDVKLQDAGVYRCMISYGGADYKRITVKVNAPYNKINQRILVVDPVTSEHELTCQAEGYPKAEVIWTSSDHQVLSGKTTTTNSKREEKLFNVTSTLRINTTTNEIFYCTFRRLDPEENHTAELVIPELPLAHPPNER

B1: B50-6 mAb (anti-hPD-L1, human IgG1, lambda) (antibody, part only; not given: human IgG1 and lambda constants, part only)
heavy, part: QVQLQQSGPGLVKPSQTLSLTCAISGDSVSSTKAAWYWIRQSPSRGLEWLGRTYFRSKWYNDYADSVKSRLTINPDTSKNQFSLQLKSVSPEDTAVYYCARGQYTAFDIWGQGTMVTVSS
light, part: QVQLVQSGAEVKKPASSVKVSCTASGGSFSTYAISWVRQAPGQGLEWMGGIIPIFGTTKYAQRFQGRVTITADESTTTAYMELSSLISDDTALYYCTTSRGFSYGWFDYWGQGTLVTVSS
B1 was tested, and the Kd was 81.9 nM, the koff was 0.0137 s⁻¹ and the kon was 167000 M⁻¹ s⁻¹.
